The source of these data is EP4772193A1.

Broadly, the EC50 is the concentration giving half of the maximal effect.

Numbering of substitutions follows the chain as printed. Names and notes keep the numbering of the source.

The target of experiment [1] is recombinant human soluble gpNMB (recombinant human gpNMB-FLAG-His) (human) (UniProt Q14956). Kind of experiment: antigen ELISA, vs hGPN06-1_H1L1. For orientation: An ELISA detects its analyte on a solid surface through an enzyme-linked reagent.
The target is the same in experiment [2]. Briefly: antigen ELISA.

B1: hGPN06-1_H1L1 VL Y93A (antibody, V domains shown)
VH: QVQLVQSGAEVKKPGASVKVSCKASGYTFTDNWMGWVKQRPGQGLEWIGAIDPSDSFTNYNQNFKGRVTMTVDTSISTAYMELSRLRSDDSAVYFCTRSGYYGSPKLGGDYWGQGTLVTVSS
VL: EIVLTQSPSSLSASVGDRVTITCSASSSISYMHWYQQKSGTAPKLLIYSTSNLASGVPSRFSGSGSGTDFTFTISSLQPEDAATYYCHQWNSAPCTFGGGTKLEIK
On to B1, for which, in experiment [1], the Relative binding activity is 0. In addition, the EC50 in experiment [2] was determined as 25.3 nM.

B2: hGPN06-1_H1L1 VH D55A (antibody, V domains shown)
VH: B1 VH with D55A
VL: B1 VL with A93Y
Turning to B2, the Relative binding activity in experiment [1] turned out to be 0. Besides, the EC50 in experiment [2] was 31.5 nM.
